Source: the supplement of paper PMC10065799, “High-throughput profiling of sequence recognition by tyrosine kinases and SH2 domains using bacterial peptide display” (eLife, 2023)

Tests used:
AncSZ = experiment: phosphorylation enrichment, bacterial display (enrichment ratio); higher = better substrate or ligand; peptides without Tyr show the background
EPHB1 = EPHB1 (UniProt P54762); experiment: as above
EPHB2 = EPHB2 (UniProt P29323); experiment: as above
FGFR1 = FGFR1 (UniProt P11362); experiment: as above
FGFR3 = FGFR3 (UniProt P22607); experiment: as above
Fer (mouse) = experiment: as above
Fes = Fes (UniProt P07332); experiment: as above
Fyn = Fyn (UniProt P06241); experiment: as above
Hck = Hck (UniProt P08631); experiment: as above
Jak2 = Jak2 (UniProt O60674); experiment: as above
MERTK = MERTK (UniProt Q12866); experiment: as above
c-Abl (mouse) = experiment: as above
c-Src = experiment: as above
Grb2 SH2 = Grb2 SH2 (UniProt P62993); experiment: SH2 binding enrichment of the phosphorylated peptide, bacterial display (enrichment ratio); higher = better substrate or ligand; peptides without Tyr show the background
SHP2-C SH2 = experiment: as above
c-Src SH2 = experiment: as above
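Wherever SH2 binding enrichment of the phosphorylated peptide, bacterial display is given: peptide library displayed on the E. coli surface as eCPX fusions, selected cells deep-sequenced, score is each peptide's frequency after selection divided by its frequency in the input.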
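Wherever phosphorylation enrichment, bacterial display is given: 11-residue human phosphosite peptides and single-mutation variants displayed on the E. coli surface, counted by deep sequencing, each peptide's frequency after selection divided by its frequency in the unselected input library; frequency after pTyr selection over input frequency; kinase dosed for 20-30% of maximal phosphorylation in three min.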

Fes, sequence (P07332 whole entry, looked up): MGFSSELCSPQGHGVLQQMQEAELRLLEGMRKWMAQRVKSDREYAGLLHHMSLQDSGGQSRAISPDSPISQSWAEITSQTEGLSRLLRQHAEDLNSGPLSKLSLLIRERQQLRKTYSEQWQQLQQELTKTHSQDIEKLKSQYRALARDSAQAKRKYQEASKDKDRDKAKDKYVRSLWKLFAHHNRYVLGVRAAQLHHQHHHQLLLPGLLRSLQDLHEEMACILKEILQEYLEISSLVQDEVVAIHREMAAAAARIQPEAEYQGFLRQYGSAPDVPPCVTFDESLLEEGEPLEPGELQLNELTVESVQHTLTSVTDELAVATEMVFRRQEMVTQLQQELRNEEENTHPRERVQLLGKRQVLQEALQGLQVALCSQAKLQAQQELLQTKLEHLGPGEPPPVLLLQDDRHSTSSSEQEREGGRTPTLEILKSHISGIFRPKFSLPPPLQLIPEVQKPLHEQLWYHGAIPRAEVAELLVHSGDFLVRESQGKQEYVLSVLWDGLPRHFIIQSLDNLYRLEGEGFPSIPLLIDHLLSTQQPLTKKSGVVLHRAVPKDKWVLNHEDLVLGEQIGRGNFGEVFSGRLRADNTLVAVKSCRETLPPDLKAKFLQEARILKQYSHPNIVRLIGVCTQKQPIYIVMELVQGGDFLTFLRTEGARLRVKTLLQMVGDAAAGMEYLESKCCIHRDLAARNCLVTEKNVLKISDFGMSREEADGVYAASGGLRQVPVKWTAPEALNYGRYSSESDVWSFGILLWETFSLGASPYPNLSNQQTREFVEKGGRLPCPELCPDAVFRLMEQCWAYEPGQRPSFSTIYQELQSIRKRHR
MERTK, sequence (Q12866 whole entry, looked up): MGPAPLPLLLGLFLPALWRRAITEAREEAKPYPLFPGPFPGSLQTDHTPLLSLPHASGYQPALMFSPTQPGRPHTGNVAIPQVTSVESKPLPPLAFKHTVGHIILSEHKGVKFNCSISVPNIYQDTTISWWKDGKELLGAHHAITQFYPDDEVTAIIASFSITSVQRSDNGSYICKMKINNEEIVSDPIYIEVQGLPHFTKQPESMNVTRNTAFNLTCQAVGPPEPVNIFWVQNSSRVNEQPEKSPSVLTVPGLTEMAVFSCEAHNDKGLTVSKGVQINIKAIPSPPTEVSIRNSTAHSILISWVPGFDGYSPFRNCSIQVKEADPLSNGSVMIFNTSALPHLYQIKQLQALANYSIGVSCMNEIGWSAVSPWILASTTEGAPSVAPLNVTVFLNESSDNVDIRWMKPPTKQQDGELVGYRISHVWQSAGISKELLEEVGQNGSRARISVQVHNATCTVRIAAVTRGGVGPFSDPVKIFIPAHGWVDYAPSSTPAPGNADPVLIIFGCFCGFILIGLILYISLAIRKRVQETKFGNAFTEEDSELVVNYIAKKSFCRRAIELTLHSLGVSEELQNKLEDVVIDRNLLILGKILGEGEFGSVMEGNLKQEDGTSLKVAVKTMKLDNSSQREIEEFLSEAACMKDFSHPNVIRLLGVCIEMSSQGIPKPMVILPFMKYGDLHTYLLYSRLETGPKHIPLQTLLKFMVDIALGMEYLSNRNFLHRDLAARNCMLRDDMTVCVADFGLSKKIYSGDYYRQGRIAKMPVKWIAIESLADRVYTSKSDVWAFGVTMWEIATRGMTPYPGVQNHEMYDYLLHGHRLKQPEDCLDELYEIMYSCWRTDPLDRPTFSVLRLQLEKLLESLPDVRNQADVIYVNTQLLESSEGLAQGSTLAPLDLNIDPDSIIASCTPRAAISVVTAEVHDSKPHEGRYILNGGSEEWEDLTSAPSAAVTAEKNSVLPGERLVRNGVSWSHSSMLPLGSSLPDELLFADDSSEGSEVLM
EPHB2, sequence (P29323 whole entry, looked up): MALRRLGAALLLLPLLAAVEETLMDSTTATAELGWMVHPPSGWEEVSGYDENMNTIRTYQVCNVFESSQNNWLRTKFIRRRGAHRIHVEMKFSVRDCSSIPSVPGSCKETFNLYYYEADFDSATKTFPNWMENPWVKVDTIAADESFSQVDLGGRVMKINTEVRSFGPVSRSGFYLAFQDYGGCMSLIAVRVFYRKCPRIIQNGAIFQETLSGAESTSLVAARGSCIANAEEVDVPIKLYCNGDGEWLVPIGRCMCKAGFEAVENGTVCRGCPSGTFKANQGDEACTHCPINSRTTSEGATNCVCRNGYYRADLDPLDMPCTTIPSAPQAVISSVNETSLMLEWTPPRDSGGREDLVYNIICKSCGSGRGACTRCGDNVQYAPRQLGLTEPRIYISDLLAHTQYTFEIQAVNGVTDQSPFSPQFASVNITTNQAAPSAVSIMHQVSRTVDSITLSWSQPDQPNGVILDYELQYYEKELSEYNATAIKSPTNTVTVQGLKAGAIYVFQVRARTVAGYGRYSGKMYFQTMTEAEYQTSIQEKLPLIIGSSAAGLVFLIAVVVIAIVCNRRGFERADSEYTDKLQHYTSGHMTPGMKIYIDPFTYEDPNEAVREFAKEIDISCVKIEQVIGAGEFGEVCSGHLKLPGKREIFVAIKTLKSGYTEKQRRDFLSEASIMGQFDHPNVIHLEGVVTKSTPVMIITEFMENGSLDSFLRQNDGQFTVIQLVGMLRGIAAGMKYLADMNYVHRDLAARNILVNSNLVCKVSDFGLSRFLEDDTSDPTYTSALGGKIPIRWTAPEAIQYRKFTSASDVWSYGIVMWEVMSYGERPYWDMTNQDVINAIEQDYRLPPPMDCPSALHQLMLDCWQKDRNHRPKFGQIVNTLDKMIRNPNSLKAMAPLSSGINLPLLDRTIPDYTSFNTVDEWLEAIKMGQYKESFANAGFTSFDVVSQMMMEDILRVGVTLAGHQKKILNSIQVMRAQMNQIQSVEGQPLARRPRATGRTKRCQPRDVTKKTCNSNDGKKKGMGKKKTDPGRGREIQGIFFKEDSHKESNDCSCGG
FGFR3, sequence (P22607 whole entry, looked up): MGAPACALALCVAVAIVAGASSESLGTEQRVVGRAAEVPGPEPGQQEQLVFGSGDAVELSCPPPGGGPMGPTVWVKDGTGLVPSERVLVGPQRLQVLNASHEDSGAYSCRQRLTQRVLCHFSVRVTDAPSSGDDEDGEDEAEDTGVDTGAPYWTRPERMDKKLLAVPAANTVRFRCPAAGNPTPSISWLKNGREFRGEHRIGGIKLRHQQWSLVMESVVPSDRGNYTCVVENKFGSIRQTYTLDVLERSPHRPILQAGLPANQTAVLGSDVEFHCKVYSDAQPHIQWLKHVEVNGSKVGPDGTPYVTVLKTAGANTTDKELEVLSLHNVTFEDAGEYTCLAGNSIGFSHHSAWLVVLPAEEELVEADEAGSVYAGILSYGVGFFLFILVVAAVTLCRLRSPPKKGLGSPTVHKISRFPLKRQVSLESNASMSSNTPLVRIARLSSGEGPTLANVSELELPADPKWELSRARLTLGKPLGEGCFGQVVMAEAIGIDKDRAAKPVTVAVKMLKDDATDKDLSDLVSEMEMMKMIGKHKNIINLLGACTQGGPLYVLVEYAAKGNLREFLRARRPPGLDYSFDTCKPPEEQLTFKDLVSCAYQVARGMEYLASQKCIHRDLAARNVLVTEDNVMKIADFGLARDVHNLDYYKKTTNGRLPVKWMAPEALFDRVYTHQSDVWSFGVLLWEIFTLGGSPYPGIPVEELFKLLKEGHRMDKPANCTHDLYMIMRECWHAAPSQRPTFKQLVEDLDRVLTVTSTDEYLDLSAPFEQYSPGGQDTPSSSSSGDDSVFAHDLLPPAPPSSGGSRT
Jak2, sequence (O60674 whole entry, looked up): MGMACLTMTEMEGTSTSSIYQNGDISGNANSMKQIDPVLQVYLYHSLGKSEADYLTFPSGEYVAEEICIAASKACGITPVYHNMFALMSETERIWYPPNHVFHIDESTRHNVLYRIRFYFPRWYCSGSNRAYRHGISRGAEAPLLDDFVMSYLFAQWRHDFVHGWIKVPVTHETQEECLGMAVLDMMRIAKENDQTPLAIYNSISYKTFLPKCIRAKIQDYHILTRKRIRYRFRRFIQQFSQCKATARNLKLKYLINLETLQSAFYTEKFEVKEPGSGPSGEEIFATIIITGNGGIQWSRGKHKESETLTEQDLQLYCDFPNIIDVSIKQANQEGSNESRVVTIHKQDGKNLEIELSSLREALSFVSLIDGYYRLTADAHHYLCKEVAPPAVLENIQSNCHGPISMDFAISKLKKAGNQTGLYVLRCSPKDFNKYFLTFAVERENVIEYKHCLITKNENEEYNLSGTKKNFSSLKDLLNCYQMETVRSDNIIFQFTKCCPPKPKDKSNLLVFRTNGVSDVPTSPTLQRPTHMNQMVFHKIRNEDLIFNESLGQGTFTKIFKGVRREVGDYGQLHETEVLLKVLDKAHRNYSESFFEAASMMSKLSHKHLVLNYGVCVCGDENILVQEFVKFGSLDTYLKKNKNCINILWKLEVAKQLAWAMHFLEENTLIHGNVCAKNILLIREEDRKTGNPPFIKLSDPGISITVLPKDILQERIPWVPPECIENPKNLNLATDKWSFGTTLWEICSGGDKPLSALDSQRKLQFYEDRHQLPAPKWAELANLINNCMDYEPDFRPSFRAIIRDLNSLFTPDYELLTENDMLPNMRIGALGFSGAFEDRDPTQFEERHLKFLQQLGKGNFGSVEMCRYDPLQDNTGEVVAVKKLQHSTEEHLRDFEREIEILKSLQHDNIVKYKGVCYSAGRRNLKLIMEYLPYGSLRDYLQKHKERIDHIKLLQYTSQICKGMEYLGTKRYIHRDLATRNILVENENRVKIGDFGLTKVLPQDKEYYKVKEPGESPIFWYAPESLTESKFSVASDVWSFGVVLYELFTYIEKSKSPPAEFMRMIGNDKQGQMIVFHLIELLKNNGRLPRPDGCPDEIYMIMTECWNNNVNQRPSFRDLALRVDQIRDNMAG

SH2 binding enrichment (Grb2 SH2)	SH2 binding enrichment (SHP2-C SH2)	SH2 binding enrichment (c-Src SH2)	Sequence	phosphorylation enrichment (AncSZ)	phosphorylation enrichment (EPHB1)	phosphorylation enrichment (EPHB2)	phosphorylation enrichment (FGFR1)	phosphorylation enrichment (FGFR3)	phosphorylation enrichment (Fer (mouse))	phosphorylation enrichment (Fes)	phosphorylation enrichment (Fyn)	phosphorylation enrichment (Hck)	phosphorylation enrichment (Jak2)	phosphorylation enrichment (MERTK)	phosphorylation enrichment (c-Abl (mouse))	phosphorylation enrichment (c-Src)
0.85	0.606	0.52	VTAALYGCLFE [BTD_Y536_R538C_YF]	1.3	0.916	1.03	0.602	0.998	1.1	1.55	5.63	3.97	1.13	1.54	1.02	4.03
0.899	0.838	1.12	VTAALYGRLYE [BTD_Y536]	0.883	1.06	1.43	0.498	0.724	1.31	1.04	5.26	5.15	0.904	2.68	0.888	4.81
1.01	0.944	0.719	VTQEPYELFCE [CBL_Y368_Q367P_YF]	1.58	0.74	0.687	0.649	0.938	1.15	1.32	0.793	0.569	0.998	0.592	0.817	1.19
0.67	0.783	0.564	VTRDEYPSNPM [CEMIP2_Y1015_I1010V]	0.6	0.411	0.417	0.323	0.491	0.339	0.751	0.356	0.397	0.696	0.487	0.523	0.394
0.801	0.604	22.5	VVHGSYDEIEG [SEC24A_Y263_S261G]	0.914	0.424	0.387	0.395	0.591	0.594	0.9	0.395	0.469	0.887	0.431	1.07	0.536
1.28	1.03	0.906	VVLVSYVPFSQ [SH2B1_Y624_S627F]	1.29	0.716	0.702	0.526	0.771	0.501	1.37	0.55	0.648	1.38	0.496	0.938	0.833
0.903	0.538	0.601	VYSTDCYRVGG [NTRK2_Y706_Y706C]	1.07	2.13	1.01	0.787	0.769	0.824	1.16	2.56	1.38	0.972	7.43	0.808	2.23
0.871	0.885	0.513	WIPIQCPIISE [NOG_Y222_Y222C]	1.31	0.818	0.591	0.54	1.04	0.54	1.41	0.551	0.563	1.12	0.373	0.836	0.433
0.964	0.71	0.5	WISNRYPDFSS [PRPH2_Y184_L185P]	0.798	0.434	0.552	0.533	0.685	0.484	0.953	0.404	0.497	0.841	0.487	0.66	0.52
1.31	1.18	1.28	WLQKLYNNFVN [MYO5C_Y526]	1.25	0.528	0.57	0.459	0.774	0.483	1.4	0.472	0.655	1	0.429	0.874	0.501
0.939	0.561	0.366	WRRLIYRCQVG [NR2E3_Y81_R76W]	0.906	0.389	0.486	0.487	0.515	0.489	0.784	0.452	0.424	0.837	0.484	0.65	0.494
0.675	0.424	0.553	YASALYGQRRS [FGF11_Y162_R163G]	0.633	0.391	0.384	0.371	0.408	0.411	0.668	0.659	1.54	0.604	0.505	0.978	0.784
0.981	1.05	1.01	YCIDHYLGKEM [G6PD_Y202_R198C]	0.892	0.499	0.567	0.567	0.558	0.952	0.827	0.503	0.694	0.75	0.64	0.611	0.606
0.847	0.791	1.42	YCRITYDIFPF [INTS13_Y67_M66T]	1.8	3.8	3.79	1.28	1.38	0.785	1.59	1.57	2.72	1.45	2.83	1.18	2.57
0.767	0.764	1.07	YEPDAYDDLDQ [ELP5_Y302]	1.26	0.542	0.523	0.56	0.842	0.663	1.19	0.496	0.548	0.919	0.403	0.769	0.482
0.868	1.13	9.64	YETVKYFNNER [ABCB7_Y345]	0.881	0.792	0.611	1.95	1.32	9.57	0.869	1.37	1.83	0.683	0.844	0.64	1.14

SH2 binding enrichment (Grb2 SH2)	SH2 binding enrichment (SHP2-C SH2)	SH2 binding enrichment (c-Src SH2)	Sequence	phosphorylation enrichment (AncSZ)	phosphorylation enrichment (EPHB1)	phosphorylation enrichment (EPHB2)	phosphorylation enrichment (FGFR1)	phosphorylation enrichment (FGFR3)	phosphorylation enrichment (Fer (mouse))	phosphorylation enrichment (Fes)	phosphorylation enrichment (Fyn)	phosphorylation enrichment (Hck)	phosphorylation enrichment (Jak2)	phosphorylation enrichment (MERTK)	phosphorylation enrichment (c-Abl (mouse))	phosphorylation enrichment (c-Src)
1.04	0.821	0.51	YFRDGHMPRQY [GSS_Y270_Y270H]	0.454	0.458	0.462	0.531	0.583	0.436	0.584	0.443	0.45	1.03	0.445	0.541	0.401
0.955	1.11	0.725	YGGLRYGYGGL [KRTAP20-2_Y13_V17G]	0.645	0.418	0.427	0.407	0.536	0.407	0.839	0.959	1.42	0.671	0.381	0.559	0.76
0.765	0.472	0.947	YGGRDYSLDEF [MYOF_Y1705]	0.981	0.594	0.609	0.582	0.697	0.618	1.1	0.657	0.603	0.945	0.454	0.809	0.594
0.813	0.673	0.682	YGSGNYNVFGN [HNRNPA2B1_Y300_D302V]	0.737	0.666	0.797	0.539	0.63	0.561	0.828	0.76	0.882	0.683	0.639	0.49	0.653
0.802	0.71	4.38	YLELNYKEDEY [MME_Y502]	1.78	0.786	0.478	4.36	3.65	0.55	1.43	0.63	1.21	1.3	0.923	0.929	0.88
24.6	2.57	4.78	YLNSSYINIST [IL23R_Y178_T175N]	0.875	0.525	0.453	2.69	2.14	0.439	0.799	0.475	0.591	1.23	0.606	0.574	0.436
1.12	0.832	0.865	YMKEPYIQSRF [HIPK4_Y175_V171M]	0.622	0.364	0.392	0.611	0.623	0.488	0.703	0.461	0.36	0.855	0.659	0.632	0.563
0.833	0.552	0.388	YNDSAYNQQLI [ZPLD1_Y198_T197A]	0.987	0.455	0.527	0.499	0.68	0.46	0.93	0.49	0.48	0.696	0.388	0.634	0.418
0.708	0.576	0.434	YPIDHYLGKEM [G6PD_Y202_R198P]	0.771	0.405	0.54	0.613	0.577	0.415	0.891	0.48	0.492	0.806	0.412	0.584	0.505
1.62	1.68	2.5	YQRITYHNWRH [PDE6B_Y556_R552Q]	0.59	0.386	0.483	0.626	0.618	0.461	0.619	0.446	0.579	0.561	0.482	0.485	0.486
0.704	0.609	0.411	YRASYYRRGDR [LTK_Y677]	0.653	0.446	0.535	0.511	0.431	0.496	0.485	0.534	0.494	0.436	0.603	0.693	0.598
0.998	0.825	0.938	YRDMDYRSYPH [RBM10_Y41_R46H]	0.567	0.578	0.486	3.25	2.1	0.487	0.64	0.412	0.457	0.621	0.357	0.5	0.376
0.678	0.488	0.472	YRQLQYCPSVE [CTNND2_Y508]	1.11	0.661	0.591	0.545	0.928	0.637	1.31	0.538	0.606	0.857	0.483	0.861	0.476
0.896	0.906	0.691	YSQNIYIQNRN [PKP2_Y631]	0.804	0.424	0.569	0.482	0.483	0.489	0.706	0.443	0.633	0.59	1.43	0.6	0.528
0.648	0.545	0.479	YTGDIYSNSNL [LZTR1_Y141]	0.954	1.19	1.53	0.626	0.616	3.56	0.707	7.46	7.87	0.524	2.36	0.911	4.63
0.766	0.55	0.406	YTGNTYRVGDT [FN1_Y106]	0.666	0.448	0.424	0.439	0.534	0.415	0.775	0.441	0.486	0.563	0.389	0.569	0.467
